{
  "source": "paper PMC5531557",
  "about": "“Crystal structure and kinetic analysis of the class B3 di-zinc metallo-β-lactamase LRA-12 from an Alaskan soil metagenome” (PLoS ONE, 2017)",
  "key": {"[1]": {"target": "T1, LRA-12 (uncultured bacterium BLR12, UniProt B5L5V5)", "T1 construct": "gene blaLRA-12; pET28a(+) in E. coli BL21(DE3), N-terminal His tag cut by thrombin; mature enzyme of 269 residues (Gln26-Asn306 in BBL numbering); di-zinc", "T1 sequence (B5L5V5 entry or part of it)": "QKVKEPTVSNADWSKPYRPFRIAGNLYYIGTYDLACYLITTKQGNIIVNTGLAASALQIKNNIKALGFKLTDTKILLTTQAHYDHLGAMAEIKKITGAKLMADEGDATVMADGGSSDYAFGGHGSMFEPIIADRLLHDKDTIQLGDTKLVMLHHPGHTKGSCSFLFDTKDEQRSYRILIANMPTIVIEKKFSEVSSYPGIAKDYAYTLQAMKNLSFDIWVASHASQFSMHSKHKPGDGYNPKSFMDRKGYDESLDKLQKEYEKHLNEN", "test": "residual ertapenem hydrolysis, UV absorbance", "format": "biochemical"}, "[2]": {"target": "T1, LRA-12", "test": "competition with ceftazidime hydrolysis, UV absorbance", "format": "biochemical"}, "[3]": {"system": "C[C@@H](O)[C@H]1C(=O)N2C(C(=O)O)=C(S[C@@H]3CN[C@H](C(=O)Nc4cccc(C(=O)O)c4)C3)[C@H](C)[C@H]12", "test": "purified protein", "format": "biochemical, uncultured bacterium BLR12", "conditions": "10 mM HEPES, 20 mM NaCl, pH 7.5, room temperature"}, "[4]": {"system": "CC(C)(O/N=C(\\C(=O)N[C@@H]1C(=O)N2C(C(=O)[O-])=C(C[n+]3ccccc3)CS[C@H]12)c1csc(N)n1)C(=O)O", "test": "purified protein", "format": "biochemical, uncultured bacterium BLR12", "conditions": "10 mM HEPES, 20 mM NaCl, pH 7.5, room temperature"}, "[5]": {"system": "CO/N=C(\\C(=O)N[C@@H]1C(=O)N2C(C(=O)[O-])=C(C[N+]3(C)CCCC3)CS[C@H]12)c1csc(N)n1", "test": "purified protein", "format": "biochemical, uncultured bacterium BLR12", "conditions": "10 mM HEPES, 20 mM NaCl, pH 7.5, room temperature"}, "[6]": {"system": "CO/N=C(\\C(=O)N[C@@H]1C(=O)N2C(C(=O)O)=C(COC(C)=O)CS[C@H]12)c1csc(N)n1", "test": "purified protein", "format": "biochemical, uncultured bacterium BLR12", "conditions": "10 mM HEPES, 20 mM NaCl, pH 7.5, room temperature"}, "[7]": {"system": "C[C@@H](O)[C@H]1C(=O)N2C(C(=O)O)=C(S[C@@H]3CN[C@H](C(=O)N(C)C)C3)[C@H](C)[C@H]12", "test": "purified protein", "format": "biochemical, uncultured bacterium BLR12", "conditions": "10 mM HEPES, 20 mM NaCl, pH 7.5, room temperature"}, "[8]": {"system": "CO[C@@]1(NC(=O)Cc2cccs2)C(=O)N2C(C(=O)O)=C(COC(N)=O)CS[C@@H]21", "test": "purified protein", "format": "biochemical, uncultured bacterium BLR12", "conditions": "10 mM HEPES, 20 mM NaCl, pH 7.5, room temperature"}, "[9]": {"system": "CC(=O)OCC1=C(C(=O)O)N2C(=O)[C@@H](NC(=O)Cc3cccs3)[C@H]2SC1", "test": "purified protein", "format": "biochemical, uncultured bacterium BLR12", "conditions": "10 mM HEPES, 20 mM NaCl, pH 7.5, room temperature"}, "[10]": {"system": "CC1(C)S[C@@H]2[C@H](NC(=O)Cc3ccccc3)C(=O)N2[C@H]1C(=O)O", "test": "purified protein", "format": "biochemical, uncultured bacterium BLR12", "conditions": "10 mM HEPES, 20 mM NaCl, pH 7.5, room temperature"}, "[11]": {"system": "C[C@@H](O)[C@H]1C(=O)N2C(C(=O)O)=C(SCCN=CN)C[C@H]12", "test": "purified protein", "format": "biochemical, uncultured bacterium BLR12", "conditions": "10 mM HEPES, 20 mM NaCl, pH 7.5, room temperature"}, "[12]": {"system": "CCN1CCN(C(=O)N[C@@H](C(=O)N[C@@H]2C(=O)N3[C@@H]2SC(C)(C)[C@@H]3C(=O)O)c2ccccc2)C(=O)C1=O", "test": "purified protein", "format": "biochemical, uncultured bacterium BLR12", "conditions": "10 mM HEPES, 20 mM NaCl, pH 7.5, room temperature"}, "[13]": {"system": "CO/N=C(\\C(=O)N[C@@H]1C(=O)N2C(C(=O)O)=C(COC(N)=O)CS[C@H]12)c1ccco1", "test": "purified protein", "format": "biochemical, uncultured bacterium BLR12", "conditions": "10 mM HEPES, 20 mM NaCl, pH 7.5, room temperature"}},
  "data": [
    {"compound": "O=C(O)c1cccc(C(=O)O)n1", "note": "[DPA, pyridine-2,6-dicarboxylic acid]", "values": [
      {"measurement": "IC50", "setting": "[1]", "result": 460, "unit": "µM"}
    ]},
    {"compound": "O=C(O)CN(CCN(CC(=O)O)CC(=O)O)CC(=O)O", "note": "[EDTA]", "values": [
      {"measurement": "IC50", "setting": "[1]", "result": 113, "unit": "µM"}
    ]},
    {"compound": "C[C@H]1[C@H](NC(=O)/C(=N\\OC(C)(C)C(=O)O)c2csc(N)n2)C(=O)N1S(=O)(=O)O", "note": "[aztreonam]", "values": [
      {"measurement": "Ki", "setting": "[2]", "result": 146, "unit": "µM"}
    ]},
    {"compound": "LRA-12 (uncultured bacterium BLR12)", "values": [
      {"measurement": "Km", "setting": "[3]", "result": "43 ± 6", "unit": "µM"},
      {"measurement": "kcat", "setting": "[3]", "result": "57 ± 4", "unit": "s⁻¹"},
      {"measurement": "kcat/Km", "setting": "[3]", "result": "1.33e+06 ± 270000", "unit": "M⁻¹ s⁻¹"},
      {"measurement": "Km", "setting": "[4]", "result": "59 ± 8", "unit": "µM"},
      {"measurement": "kcat", "setting": "[4]", "result": "12 ± 0.8", "unit": "s⁻¹"},
      {"measurement": "kcat/Km", "setting": "[4]", "result": "200000 ± 40000", "unit": "M⁻¹ s⁻¹"},
      {"measurement": "Km", "setting": "[5]", "result": "93 ± 13", "unit": "µM"},
      {"measurement": "kcat", "setting": "[5]", "result": "15 ± 1.4", "unit": "s⁻¹"},
      {"measurement": "kcat/Km", "setting": "[5]", "result": "160000 ± 40000", "unit": "M⁻¹ s⁻¹"},
      {"measurement": "Km", "setting": "[6]", "result": "36 ± 4", "unit": "µM"},
      {"measurement": "kcat", "setting": "[6]", "result": "7 ± 0.3", "unit": "s⁻¹"},
      {"measurement": "kcat/Km", "setting": "[6]", "result": "190000 ± 30000", "unit": "M⁻¹ s⁻¹"},
      {"measurement": "Km", "setting": "[7]", "result": "113 ± 20", "unit": "µM"},
      {"measurement": "kcat", "setting": "[7]", "result": "95 ± 11", "unit": "s⁻¹"},
      {"measurement": "kcat/Km", "setting": "[7]", "result": "840000 ± 230000", "unit": "M⁻¹ s⁻¹"},
      {"measurement": "Km", "setting": "[8]", "result": "4 ± 0.6", "unit": "µM"},
      {"measurement": "kcat", "setting": "[8]", "result": "7 ± 0.4", "unit": "s⁻¹"},
      {"measurement": "kcat/Km", "setting": "[8]", "result": "1.75e+06 ± 320000", "unit": "M⁻¹ s⁻¹"},
      {"measurement": "Km", "setting": "[9]", "result": "11 ± 2", "unit": "µM"},
      {"measurement": "kcat", "setting": "[9]", "result": "18 ± 0.8", "unit": "s⁻¹"},
      {"measurement": "kcat/Km", "setting": "[9]", "result": "1.64e+06 ± 370000", "unit": "M⁻¹ s⁻¹"},
      {"measurement": "Km", "setting": "[10]", "result": "47 ± 4", "unit": "µM"},
      {"measurement": "kcat", "setting": "[10]", "result": "70 ± 2", "unit": "s⁻¹"},
      {"measurement": "kcat/Km", "setting": "[10]", "result": "1.49e+06 ± 150000", "unit": "M⁻¹ s⁻¹"},
      {"measurement": "Km", "setting": "[11]", "result": "39 ± 7", "unit": "µM"},
      {"measurement": "kcat", "setting": "[11]", "result": "66 ± 5", "unit": "s⁻¹"},
      {"measurement": "kcat/Km", "setting": "[11]", "result": "1.69e+06 ± 420000", "unit": "M⁻¹ s⁻¹"},
      {"measurement": "Km", "setting": "[12]", "result": "83 ± 9", "unit": "µM"},
      {"measurement": "kcat", "setting": "[12]", "result": "74 ± 3", "unit": "s⁻¹"},
      {"measurement": "kcat/Km", "setting": "[12]", "result": "890000 ± 130000", "unit": "M⁻¹ s⁻¹"},
      {"measurement": "Km", "setting": "[13]", "result": "20 ± 3.4", "unit": "µM"},
      {"measurement": "kcat", "setting": "[13]", "result": "16 ± 0.9", "unit": "s⁻¹"},
      {"measurement": "kcat/Km", "setting": "[13]", "result": "800000 ± 190000", "unit": "M⁻¹ s⁻¹"}
    ]}
  ]
}
